Results: patent publication US20230390362A1, “USE OF TRIGONAL AGONIST HAVING ACTIVITIES TO ALL OF GLUCAGON, GLP-1, AND GIP RECEPTORS IN TREATMENT OF SEQUELAE FOLLOWING RESPIRATORY INFECTIOUS DISEASES” (HANMI PHARM. CO., LTD., priority 2020, published 2023)
Positions of bridges follow the written chain, without caps; N, C: chain ends. Non-standard residues stand in square brackets, D forms with d. No end group written: not given here. *: point of attachment. Acetyl(2-(4-imidazolyl)) = O=C(Cc1c[nH]cn1)*; Aib = CC(C)(N)C(=O)O

Each binder was assayed against human GCG receptor (human, UniProt P47871 26-477) (assay: cell-based or functional assay).
human GCG receptor, sequence (P47871 26-477): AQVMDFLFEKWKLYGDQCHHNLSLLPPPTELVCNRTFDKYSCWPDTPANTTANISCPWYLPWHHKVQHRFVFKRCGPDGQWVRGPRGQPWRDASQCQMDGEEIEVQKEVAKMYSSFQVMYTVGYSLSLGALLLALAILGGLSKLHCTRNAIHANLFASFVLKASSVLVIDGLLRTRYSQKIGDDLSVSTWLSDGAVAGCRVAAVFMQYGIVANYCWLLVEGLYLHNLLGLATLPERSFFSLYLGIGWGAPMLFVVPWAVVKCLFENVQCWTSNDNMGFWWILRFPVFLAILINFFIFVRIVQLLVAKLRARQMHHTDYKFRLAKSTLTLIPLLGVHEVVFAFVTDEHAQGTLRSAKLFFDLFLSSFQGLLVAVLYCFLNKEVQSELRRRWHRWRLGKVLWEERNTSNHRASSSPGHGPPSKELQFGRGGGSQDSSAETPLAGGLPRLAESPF

Row | Binder | In vitro activity relative to native peptide (%), vs. Glucagon (cAMP EC50) [%]
1 | {Acetyl(2-(4-imidazolyl))}-GQGTFTSDLSIQYDSEHQRDFIEWLKDTGPSSGAPPPSHG [trigonal agonist of SEQ ID NO: 19] | < 0.1
2 | {Acetyl(2-(4-imidazolyl))}-GQGTFTSDLSIQYEEEAQQDFVEWLKDTGPSSGAPPPSHG [trigonal agonist of SEQ ID NO: 20] | < 0.1
3 | Y[Aib]QGTFTSDYSKYLDECRAKEFVQWLLDHHPSSGQPPPS (bridge 16-20) [trigonal agonist of SEQ ID NO: 21] | 267
4 | Y[Aib]QGTFTSDYSKCLDEKRAKEFVQWLLDHHPSSGQPPPS (bridge 16-20) [trigonal agonist of SEQ ID NO: 22] | 140
5 | Y[Aib]QGTFTSDYSKYLDECRAKEFVQWLLAQKGKKNDWKHNIT (bridge 16-20) [trigonal agonist of SEQ ID NO: 23] | 9.3
6 | H[Aib]QGTFTSDVSSYLLGQAAKQFIAWLVKGGGPSSGAPPPSC [trigonal agonist of SEQ ID NO: 3] | < 0.1
7 | Y[Aib]QGTFTSDYSKYLDECRAKEFVQWLKNGGPSSGAPPPS (bridge 16-20) [trigonal agonist of SEQ ID NO: 24] | 9.3
8 | H[Aib]QGTFTSDCSKYLDERAAQDFVQWLLDGGPSSGAPPPS [trigonal agonist of SEQ ID NO: 25] | 0.1
9 | H[Aib]QGTFTSDCSKYLDSRAAQDFVQWLLDGGPSSGAPPPS [trigonal agonist of SEQ ID NO: 26] | 0.2
10 | H[Aib]QGTFTSDYSKYLDERACQDFVQWLLDQGGPSSGAPPPS [trigonal agonist of SEQ ID NO: 27] | 0.8
11 | H[Aib]QGTFTSDYSKYLDEKRAQEFVCWLLAQKGKKNDWKHNIT [trigonal agonist of SEQ ID NO: 28] | 1.6
12 | H[Aib]QGTFTSDYSKYLDEKAAKEFVQWLLNTC (bridge 16-20) [trigonal agonist of SEQ ID NO: 29] | 6
13 | H[Aib]QGTFTSDYSKYLDEKAQKEFVQWLLDTC (bridge 16-20) [trigonal agonist of SEQ ID NO: 30] | 0.7
14 | H[Aib]QGTFTSDYSKYLDEKACKEFVQWLLAQ (bridge 16-20) [trigonal agonist of SEQ ID NO: 31] | 2.2
15 | H[Aib]QGTFTSDYSKYLDEKACKDFVQWLLDGGPSSGAPPPS (bridge 16-20) [trigonal agonist of SEQ ID NO: 32] | 1.7
16 | H[Aib]QGTFTSDYSIAMDEIHQKDFVNWLLAQKC (bridge 16-20) [trigonal agonist of SEQ ID NO: 33] | < 0.1

What follows are binders tested against T1, human GIP receptor (human, UniProt P48546 22-466) (assay: cell-based or functional assay).
T1 sequence (looked up): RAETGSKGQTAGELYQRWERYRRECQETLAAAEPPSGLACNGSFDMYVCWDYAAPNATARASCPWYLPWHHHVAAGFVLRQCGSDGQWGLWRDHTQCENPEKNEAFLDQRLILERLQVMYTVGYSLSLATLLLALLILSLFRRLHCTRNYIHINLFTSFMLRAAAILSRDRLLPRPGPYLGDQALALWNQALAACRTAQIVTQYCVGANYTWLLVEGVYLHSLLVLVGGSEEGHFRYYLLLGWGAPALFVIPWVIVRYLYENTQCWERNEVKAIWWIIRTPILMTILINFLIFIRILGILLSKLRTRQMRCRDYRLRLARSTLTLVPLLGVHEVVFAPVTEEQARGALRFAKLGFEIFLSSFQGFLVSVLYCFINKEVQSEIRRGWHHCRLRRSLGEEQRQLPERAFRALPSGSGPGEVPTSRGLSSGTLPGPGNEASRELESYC

Row | Binder | In vitro activity relative to native peptide (%), vs. GIP (cAMP EC50) [%]
17 | {Acetyl(2-(4-imidazolyl))}-GQGTFTSDLSIQYDSEHQRDFIEWLKDTGPSSGAPPPSHG [trigonal agonist of SEQ ID NO: 19] | < 0.1
18 | {Acetyl(2-(4-imidazolyl))}-GQGTFTSDLSIQYEEEAQQDFVEWLKDTGPSSGAPPPSHG [trigonal agonist of SEQ ID NO: 20] | < 0.1
19 | Y[Aib]QGTFTSDYSKYLDECRAKEFVQWLLDHHPSSGQPPPS (bridge 16-20) [trigonal agonist of SEQ ID NO: 21] | 22.7
20 | Y[Aib]QGTFTSDYSKCLDEKRAKEFVQWLLDHHPSSGQPPPS (bridge 16-20) [trigonal agonist of SEQ ID NO: 22] | 59.7
21 | Y[Aib]QGTFTSDYSKYLDECRAKEFVQWLLAQKGKKNDWKHNIT (bridge 16-20) [trigonal agonist of SEQ ID NO: 23] | < 0.1
22 | H[Aib]QGTFTSDVSSYLLGQAAKQFIAWLVKGGGPSSGAPPPSC [trigonal agonist of SEQ ID NO: 3] | < 0.1
23 | Y[Aib]QGTFTSDYSKYLDECRAKEFVQWLKNGGPSSGAPPPS (bridge 16-20) [trigonal agonist of SEQ ID NO: 24] | < 0.1
24 | H[Aib]QGTFTSDCSKYLDERAAQDFVQWLLDGGPSSGAPPPS [trigonal agonist of SEQ ID NO: 25] | < 0.1
25 | H[Aib]QGTFTSDCSKYLDSRAAQDFVQWLLDGGPSSGAPPPS [trigonal agonist of SEQ ID NO: 26] | < 0.1
26 | H[Aib]QGTFTSDYSKYLDERACQDFVQWLLDQGGPSSGAPPPS [trigonal agonist of SEQ ID NO: 27] | 0.9
27 | H[Aib]QGTFTSDYSKYLDEKRAQEFVCWLLAQKGKKNDWKHNIT [trigonal agonist of SEQ ID NO: 28] | < 0.1
28 | H[Aib]QGTFTSDYSKYLDEKAAKEFVQWLLNTC (bridge 16-20) [trigonal agonist of SEQ ID NO: 29] | < 0.1
29 | H[Aib]QGTFTSDYSKYLDEKAQKEFVQWLLDTC (bridge 16-20) [trigonal agonist of SEQ ID NO: 30] | 0.8
30 | H[Aib]QGTFTSDYSKYLDEKACKEFVQWLLAQ (bridge 16-20) [trigonal agonist of SEQ ID NO: 31] | 2.4
31 | H[Aib]QGTFTSDYSKYLDEKACKDFVQWLLDGGPSSGAPPPS (bridge 16-20) [trigonal agonist of SEQ ID NO: 32] | 8.8
32 | H[Aib]QGTFTSDYSIAMDEIHQKDFVNWLLAQKC (bridge 16-20) [trigonal agonist of SEQ ID NO: 33] | 10.4

What follows are binders tested against human GLP-1 receptor (human, UniProt P43220 24-463) (assay: cell-based or functional assay).

Row | Binder | In vitro activity relative to native peptide (%), vs. GLP-1 (cAMP EC50) [%]
33 | {Acetyl(2-(4-imidazolyl))}-GQGTFTSDLSIQYDSEHQRDFIEWLKDTGPSSGAPPPSHG [trigonal agonist of SEQ ID NO: 19] | < 0.1
34 | {Acetyl(2-(4-imidazolyl))}-GQGTFTSDLSIQYEEEAQQDFVEWLKDTGPSSGAPPPSHG [trigonal agonist of SEQ ID NO: 20] | < 0.1
35 | Y[Aib]QGTFTSDYSKYLDECRAKEFVQWLLDHHPSSGQPPPS (bridge 16-20) [trigonal agonist of SEQ ID NO: 21] | 17.8
36 | Y[Aib]QGTFTSDYSKCLDEKRAKEFVQWLLDHHPSSGQPPPS (bridge 16-20) [trigonal agonist of SEQ ID NO: 22] | 20.1
37 | Y[Aib]QGTFTSDYSKYLDECRAKEFVQWLLAQKGKKNDWKHNIT (bridge 16-20) [trigonal agonist of SEQ ID NO: 23] | 4.01
38 | H[Aib]QGTFTSDVSSYLLGQAAKQFIAWLVKGGGPSSGAPPPSC [trigonal agonist of SEQ ID NO: 3] | 1.8
39 | Y[Aib]QGTFTSDYSKYLDECRAKEFVQWLKNGGPSSGAPPPS (bridge 16-20) [trigonal agonist of SEQ ID NO: 24] | 41.2
40 | H[Aib]QGTFTSDCSKYLDERAAQDFVQWLLDGGPSSGAPPPS [trigonal agonist of SEQ ID NO: 25] | 82.6
41 | H[Aib]QGTFTSDCSKYLDSRAAQDFVQWLLDGGPSSGAPPPS [trigonal agonist of SEQ ID NO: 26] | 64.5
42 | H[Aib]QGTFTSDYSKYLDERACQDFVQWLLDQGGPSSGAPPPS [trigonal agonist of SEQ ID NO: 27] | 83.1
43 | H[Aib]QGTFTSDYSKYLDEKRAQEFVCWLLAQKGKKNDWKHNIT [trigonal agonist of SEQ ID NO: 28] | 17.2
44 | H[Aib]QGTFTSDYSKYLDEKAAKEFVQWLLNTC (bridge 16-20) [trigonal agonist of SEQ ID NO: 29] | 38.5
45 | H[Aib]QGTFTSDYSKYLDEKAQKEFVQWLLDTC (bridge 16-20) [trigonal agonist of SEQ ID NO: 30] | 142
46 | H[Aib]QGTFTSDYSKYLDEKACKEFVQWLLAQ (bridge 16-20) [trigonal agonist of SEQ ID NO: 31] | 135
47 | H[Aib]QGTFTSDYSKYLDEKACKDFVQWLLDGGPSSGAPPPS (bridge 16-20) [trigonal agonist of SEQ ID NO: 32] | 151
48 | H[Aib]QGTFTSDYSIAMDEIHQKDFVNWLLAQKC (bridge 16-20) [trigonal agonist of SEQ ID NO: 33] | 24.5
